Here are results for two molecules from publication PMC4934754, “HCF1 and OCT2 Cooperate with EBNA1 To Enhance OriP-Dependent Transcription and Episome Maintenance of Latent Epstein-Barr Virus”.

The target of series [1] is T1, His-OCT2 DBD (HTRF) (UniProt P09086-3 175-345).
T1 sequence: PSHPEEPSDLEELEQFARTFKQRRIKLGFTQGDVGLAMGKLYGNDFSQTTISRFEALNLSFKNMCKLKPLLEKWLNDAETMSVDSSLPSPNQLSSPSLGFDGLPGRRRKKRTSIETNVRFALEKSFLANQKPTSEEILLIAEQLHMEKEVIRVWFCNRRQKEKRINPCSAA
In words: HTRF; 0-80 nM OCT2; Buffer not given (EMSA as in cited ref. 32; HTRF and ALPHA in similar conditions; 1 h incubation for HTRF). To be noted: protein: recombinant; label: 5' biotin, streptavidin Eu3+ cryptate. (In TR-FRET formats the signal depends on donor and acceptor labels being close together.)

The target of series [2] is T2, EBNA1 DBD;OCT2 DBD (Epstein-Barr virus;human?, UniProt P03211;P09086-3 459-607;175-345, |). Kind of series: HTRF; 15 nM His-EBNA1, 2.5-40 nM unlabeled OCT2; OCT2 stimulates EBNA1 binding; Buffer not given (EMSA as in cited ref. 32; HTRF and ALPHA in similar conditions; 1 h incubation for HTRF). To be noted: protein: recombinant;recombinant; tags: His;none (His-SUMO removed by SUMO protease); copies: 1;1; label: 5' biotin, streptavidin Eu3+ cryptate.
T2 sequence (P03211 459-607, one chain of several): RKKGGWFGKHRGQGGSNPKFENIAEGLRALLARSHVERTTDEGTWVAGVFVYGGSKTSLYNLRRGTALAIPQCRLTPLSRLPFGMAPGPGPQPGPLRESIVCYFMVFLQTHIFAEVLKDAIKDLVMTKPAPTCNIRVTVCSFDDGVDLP

Series [3] addresses T3, OCT2 DBD (UniProt P09086-3 175-345).
T3 sequence: T1 sequence
Kind of series: EMSA; single major species at 40 nM OCT2, larger complex at higher concentration; Buffer not given (EMSA as in cited ref. 32; HTRF and ALPHA in similar conditions; 1 h incubation for HTRF). The following applies: protein: recombinant; tags: none (His-SUMO removed by SUMO protease); label: 32P.

For series [4], the target named is EBNA1 DBD (Epstein-Barr virus, UniProt P03211 459-607). Kind of series: EMSA; no OCT2; low nanomolar affinity, two major species; Buffer not given (EMSA as in cited ref. 32; HTRF and ALPHA in similar conditions; 1 h incubation for HTRF). The following applies: protein: recombinant; tags: His; label: 32P.
Sequence of EBNA1 DBD (P03211 459-607): as the sequence (P03211 459-607, one chain of several) above
Series [5] deals with T2, EBNA1 DBD;OCT2 DBD. Kind of series: EMSA; EBNA1 titration with 40 nM OCT2 or OCT2 titration with 15 nM EBNA1; saturated complex distinct from EBNA1 alone; Buffer not given (EMSA as in cited ref. 32; HTRF and ALPHA in similar conditions; 1 h incubation for HTRF). The following applies: protein: recombinant;recombinant; tags: His;none (His-SUMO removed by SUMO protease); copies: 1;1; label: 32P.

B1: 2xFR (60 bp), biotin (dsDNA)
DNA 1: ATTAGGATAGCCTATGCTACCCAGATATAGATTAGGATAGCATATGCTACCCAGATATAG
DNA 2: CTATATCTGGGTAGCATATGCTATCCTAATCTATATCTGGGTAGCATAGGCTATCCTAAT
Regarding B1, the binding result in series [1] and in series [2] was “binds” in each case.

B2: 2xFR (60-mer), 32P (dsDNA)
DNA 1: B1 DNA 1
DNA 2: B1 DNA 2
As for B2, the binding result in series [3], in series [4] and in series [5] was “binds” each time.
